How the values were obtained:
[1] = Laccase stability on extended incubation with ethanol or methanol; type: physicochemical; settings: room temperature, pH 6.0
Experimental: To examine the effect of ethanol on Cerrena sp. WR1 laccase stability, the enzyme was incubated in a 50 mM sodium phosphate buffer (pH 6.0) containing 1%, 10%, or 25% ethanol at room temperature for up to 52 days and the residual enzyme activity was measured at different time points during incubation. A T. versicolor laccase (LccTv) was used as a reference enzyme. […] Differently, Lcc3 retained around 90% activity after being incubated with 25% ethanol for 10 days and retained approximately 50% enzymatic activity after a 40-day incubation period. This enzyme also retained about 50% enzymatic activity after a 45-day incubation period with 10% ethanol and a 40-day incubation without ethanol.
The laccase stability after incubation with methanol or ethanol for an extended period was further investigated. […] The enzyme activity of the Lentinus sp. laccase maintained as 95% in 25% ethanol while that of the reference laccase reduced to 41%.

[2] = pH stability: residual activity after pre-incubation at various pH; type: physicochemical
Experimental: (§1) The effect of pH on the laccase activity was investigated at a pH range of 2.5-6.0. Four buffer systems were used in this study: 50 mM glycine-HCl buffer (pH 2.5), 50 mM citric acid buffer (pH 3.0-5.5), 50 mM sodium phosphate buffer (pH 6.0-8.0), and 50 mM glycine-NaOH buffer (pH 9.0-10). To determine the protein stability of laccase at a wide range of pH conditions, the enzyme (0.1 mg/mL in each reaction) was pre-incubated at pH 3.0-10 at 25° C. for 0-5 days and then the residual enzyme activity was determined.
(§2) The effect of pH on laccase activity was investigated at pH 2.0-6.0, using a glycine-HCl buffer (pH 2.0-2.5) or a citric acid buffer (pH 2.5-6.0). To determine protein stability in different pH conditions, the enzyme was pre-incubated at pH 2.5-4.5 at 25° C. for 0-2 h and the residual enzyme activity was determined by the standard enzymatic assay.

[3] = ABTS oxidation assay (laccase activity, kinetics, effect of temperature and pH); type: biochemical
Experimental: All chemicals used in this study were obtained from Merck (Darmstadt, Germany) or Sigma-Aldrich (St. Louis, Mo. USA). All spectrophotometric measurements were performed using the Beckman DU 640 spectrophotometer (Beckman Coulter, USA).
(§3) The effect of temperature on laccase activity was studied using the standard enzymatic activity assay described above under various reaction temperatures (i.e., 20-80° C.). For thermal stability study, the enzyme was pre-incubated in a 50 mM citric acid buffer (pH 3.0) at 50-80° C. for 0-180 min and the residual enzymatic activity was then determined.
as §1
(§4) Kinetic parameters Km and Vmax were determined as follows. […] The oxidation reactions of guaiacol and 2,6-DMP were monitored by determining OD436 values (ε=6,400 M^−1cm^−1) and OD468 values (ε=49,600 M^−1 cm^−1), respectively. The kinetic parameters were determined by nonlinear regression analysis (ENZFITTER software program, Elsevier-Biosoft, Cambridge, UK) using the Michaelis-Menten model.
(§5) To determine the effect of temperature on the enzyme activity, a standard enzymatic activity assay was performed under various temperatures (i.e., 30-90° C.). For thermal stability study, laccase was pre-incubated in a 50 mM citric acid buffer (pH 3.0) at 30-80° C. for 10-40 min and the residual enzymatic activity was then determined by the standard assay. See Example 1 above. Values of t1/2 were determined accordingly.
as §2
(§6) Kinetic parameters were determined following conventional methods. See also Example 1 above.

[4] = Thermal stability: residual enzymatic activity after pre-incubation (t1/2); type: physicochemical; settings: for t1/2: 50 mM citric acid buffer pH 3.0
Experimental: as §3
To test thermal stability, the enzyme was kept at various temperatures (50-80° C.) for 10-40 min and the remaining enzymatic activity was determined using the standard activity assay.
as §5

[5] = 2,6-DMP oxidation (laccase kinetics, optimum temperature and pH); type: biochemical; settings: 2,6-DMP as substrate
Experimental: as §3, §1, §4, §5, §2, §6

[6] = pH 3
Experimental: Lignin degradation reaction was carried out by mixing a crude laccase broth (containing 100 U enzyme) with 50 ml reaction buffer (50 mM citric acid solution; pH 3.0) containing 100 mg smashed rice straw materials. The mixture was incubated at 30-80° C. for 20-60 min. Sodium azide was added to the mixture at a final concentration of 1 mM to stop the enzymatic reaction. The processed rice straw was collected by filtration and dried at 60° C. The lignin contents in the rice straw before and after treatment were determined following the method described in kappa number of ISO 302:2004 (International Organization for Standardization).
The lignin degradation reaction and the dye decoloration reaction were carried out following the methods described in Example 1 above. […] See FIG. 9, pane A. The lignin degradation efficiencies were 22%-25% at 40-50° C. for 40 min and 32% at 40° C. for 60 min.

B1: Lcc3: laccase purified from Cerrena sp. WR1, GenBank accession no. GQ899203; SEQ ID NO:3 mature, 9 precursor (protein)
chain: AIGPVADLHITDANVSPDGFTRPAVLAGGTFPGPLITGKQGDNFQINVIDELTDATMLKSTSIHWHGIFQKGTNWADGPSFVNQCPITTGNSFLYDFSVPDQTGTYWYHSHLSTQYCDGLRGALVIYDDNDPHKDLYDVDDETTVITLADWYHTQARLITGVPVSDATLINGLGRYLNGPTDAPLAVITVDQGKRYRFRLVSISCDPNFVFSIDNHSMTVIEVDAVNSQPLVVDSIQIFAAQRYSFILNANQSVGNYWIRANPNLGNTGFTNGINSAILRYNGAPVAEPNTTQTASTNPLNEVNLHPLVPTPVPGTPQPGGVDVVQNLVLGFSGGKFTINGVAFSPPTVPVLLQILSGTTTAQDLLPTGSIIELPLGKTVELTLAAGVLGGPHPFHLHGHTFHVVRSAGQTTPNYVDPILRDTVNTGAAGDNVTIRFTTDNPGPWFLHCHIDWHLEAGFAVVFAEGLNQTNAANPTPDAWNNLCDLYNALPAGDQ
modifications: Cerrena sp
[1]; 1% ethanol, 52-day incubation
  activity retained: about 61%
[1]; 10% ethanol, 45-day incubation
  activity retained: approximately 50%
[1]; 25% ethanol, 40-day incubation
  activity retained: approximately 50%
[1]; 25% ethanol, 10 days
  activity retained: around 90%
[1]; without ethanol, 40-day incubation
  activity retained: approximately 50%
[2]; pH 3.0-5.0
  stability at an acidic environment: less stable
[2]; pH 6-10, 63 hr incubation, 25° C.
  activity maintained: about 100%
[3]; ABTS as substrate
  optimal temperature: 50 °C
  pH of maximal activity: 3.0
[3]; ABTS as substrate, at pH 3.0
  Optimum temperature: 50 (at pH 3.0) ° C.
[3]; ABTS as substrate, optimum temperature and pH
  Specific activity: 1013.5 U/mg
[3]; at 30° C. and pH 3.0, ABTS
  specific activity of the purified laccase: 2,159.6 U/mg
[4]; 25° C., 50 mM sodium phosphate buffer (pH 6.0)
  t1/2 at room temperature: 40 days
[4]; at 50° C.
  t1/2: 120 min
[4]; at 60° C.
  t1/2: 40 min
[4]; at 70° C.
  t1/2: 7.5 min
[4]; at 70° C., listed as Cerrena sp. WR1
  t1/2: 8 min
[5]
  optimal temperature: 70 °C
  pH of maximal activity: 3.5
[5]; at pH 3.5
  Optimum temperature: 70 (at pH 3.5) ° C.
[5]; optimum temperature and pH
  Specific activity: 118.3 U/mg
[6]
  highest lignin degradation efficiency per 100 U: around 22.9%

From US8728787B2, “Fungal laccases and uses thereof” (Academia Sinica, priority 2010, dated 2014)
